# Laboratory results published in US20240327505A1 (published 2024).
# How the values were obtained:
# [1] = target: SARS-CoV-2 spike protein on fully infectious (replication-competent) SARS-CoV-2 virus (SARS-CoV-2, UniProt P0DTC2 14-1273); assay: cell-based or functional assay
# [2] = target: SARS-CoV-1 spike protein on pseudovirus (SARS-CoV-1, UniProt P59594 14-1255); assay: cell-based or functional assay
# [3] = target: SARS-CoV-2 Wuhan-1 full-length Spike protein on pseudovirus (SARS-CoV-2, UniProt P0DTC2 14-1273); assay: cell-based or functional assay
# [4] = target: SARS-CoV-2 spike receptor-binding domain (RBD) (SARS-CoV-2, UniProt P0DTC2 319-541)
# [5] = target: SARS-CoV-2 spike S1 protein (SARS-CoV-2, UniProt P0DTC2 16-685)
# SARS-CoV-2 S2 protein = SARS-CoV-2 S2 protein (SARS-CoV-2, UniProt P0DTC2 686-1213)
# [6] = target: SARS-CoV-2 spike receptor-binding domain (RBD) (SARS-CoV-2, UniProt P0DTC2 319-541); remark: listed apart in the source
# [7] = target: SARS-CoV-2 spike S1 protein (SARS-CoV-2, UniProt P0DTC2 16-685); remark: listed apart in the source
# [8] = target: SARS-CoV-2 Spike (S) trimer (SARS-CoV-2, UniProt P0DTC2 16-1213); assay: ELISA on coated S trimer, 1:50
binder,measurement,setting,value
"AB-009346 (antibody, V domains shown) VH: EVQLVESGGGVVRPGGSLRLSCAASGFTFDDYGMSWVRQAPGKGLEWVSGINWNGGSTGYADSVKGRFTISRDNAKNSLYLQMNSLRAEDTALYYCARWPLLGISGYYHYYMDVWGKGTTVTVSS VL: QSALTQPRSVSGSPGQSVTISCTGTSSDVGGYNYVSWYQQHPGKAPKLMIYDVSKRPSGVPDRFSGSKSGNTASLTISGLQAEDEADYYCCSYAGSYTLLFGGGTKLIVL",Neutralization (Infectious virus; (µg/mL)),[1],2.14 µg/mL
same,Pseudovirus Neturalization,[2],> 50 µg/mL
same,Pseudovirus Neturalization,[3],0.774 µg/mL
"AB-009614 (antibody, V domains shown) VH: QVQLVESGGGVVQPGRSLRLSCAASGFTFSSYGMHWVRQAPGKGLEWVAVISYDGSNKYYADSVKGRFTISRDNSKNTLYLQMNSLRAEDTAVYYCAKDQKYYDILTGYYRSTYYYYYYGMDVWGQGTTVTVSS VL: not shown",Neutralization (Infectious virus; (µg/mL)),[1],0.075 µg/mL
same,Pseudovirus Neturalization,[2],> 50 µg/mL
same,Pseudovirus Neturalization,[3],0.142 µg/mL
"AB-009610 (antibody, V domains shown) VH: QVQLVQSGAEVKKPGSSVKVSCKASGGTFSNYAISWVRQAPGQGLEWMGRIIPILGIANYAQKFQGRVTITADKSTSTAYMELSSLRSEDTAVYYCATTPYYYDSSGYYLDYWGQGTLVTVSS VL: not shown",Kd,[4],21.6 nM
same,koff,[4],0.00107 s⁻¹
same,kon,[4],49500 M⁻¹ s⁻¹
same,Kd,[5],111 nM
same,koff,[5],0.00456 s⁻¹
same,kon,[5],41100 M⁻¹ s⁻¹
"AB-009283 (antibody, V domains shown) VH: EVQLVESGGGLIQPGGSLRLSCAASGFTVSSNYMSWVRQAPGKGLEWVSVIYSGGSTYYADSVKGRFTISRDNSKNTLYLQMNSLRAEDTAVYYCATSSFDYYYYFMDVWGKGTTVTVSS VL: SYELTQPPSVSVSPGQTASITCSGDKLGDKYACWYHQKPGQSPVLVIYQDTKRPSGIPERFSASNSGNTATLTISGTQALDEADYYCQAWDSSIVVFGGGTKLTVL",Kd,SARS-CoV-2 S2 protein,22.7 nM
same,koff,SARS-CoV-2 S2 protein,0.000319 s⁻¹
same,kon,SARS-CoV-2 S2 protein,14100 M⁻¹ s⁻¹
"AB-010020 (antibody, V domains shown) VH: QMQLVQSGPEVKKPGTSVKVSCKASGFTFTSSAVQWVRQARGQRLEWIGWIVVGSGNTNYAQKFQERVTITRDMSTSTAYMELSSLRSEDTAVYYCAAPACSSTSCYDGFDIWGQGTMVTVSS VL: not shown",Kd,[4],2.16 nM
same,koff,[4],0.00212 s⁻¹
same,kon,[4],980000 M⁻¹ s⁻¹
same,Kd,[5],13.5 nM
same,koff,[5],0.0069 s⁻¹
same,kon,[5],512000 M⁻¹ s⁻¹
"AB-010021 (antibody, V domains shown) VH: QMQLVQSGPEVKKPGTSVKVSCKASGFTFTSSAVQWVRQARGQRLEWIGWIVVGSGNTNYAQKFQERVTITRDMSTSTAYMELSSLRSEDTAVYYCAAVYCSGGSCLDAFDIWGQGTMVTVSS VL: not shown",Kd,[4],12.4 nM
same,koff,[4],0.00275 s⁻¹
same,kon,[4],221000 M⁻¹ s⁻¹
same,Kd,[5],12.5 nM
same,koff,[5],0.00214 s⁻¹
same,kon,[5],171000 M⁻¹ s⁻¹
"AB-009273 (antibody, V domains shown) VH: QVQLVQSGAEVKKPGSSVKVSCKASGGTFSSYAISWVRQAPGQGLEWMGGIIPIFGTANYAQKFQGRVTITTDESTSTAYMELSSLRSEDTAVYYCARVGVYDSSGYYFDYWGQGTLVTVSS VL: EIVLTQSPATLSLSPGERATLSCRASQSVSSYLAWYQQKPGQAPRLLIYDASNRATGIPARFSGSGSGTDFTLTISSLEPEDFAVYYCQQRSNWPPRLTFGGGTKVEIK",Kd,SARS-CoV-2 S2 protein,6.87 nM
same,koff,SARS-CoV-2 S2 protein,0.000148 s⁻¹
same,kon,SARS-CoV-2 S2 protein,21500 M⁻¹ s⁻¹
"AB-009251 (antibody, V domains shown) V domain 1: QVQLVQSGAEVKKPGASVKVSCKTSGYTFTTFYIHWVRQVPGQGLEWMGIINPDGGSTNYAQEFQARVTMTTDTSTSTAYMELSSLRFEDTAVFYCATSLGAPPGLSPRTGPQRRGPPGFDFWGQGTLITVSA V domain 2: QSVLTQPPSVSGAPGQRVTISCTGSSSNIGAGYDVHWYQQLPGTAPKLLIFDNNNRPSGVPYRFSGSRSGTSASLAITGLQPEDEADYYCQSYDSSLSGRVFGGGTRVTVL",Kd,[6],9.31 nM
same,koff,[6],0.000469 s⁻¹
same,kon,[6],50400 M⁻¹ s⁻¹
same,Kd,[7],48.1 nM
same,koff,[7],0.000544 s⁻¹
same,kon,[7],11300 M⁻¹ s⁻¹
same,OD 450 nm,[8],0.886 OD
"AB-009676 (antibody, V domains shown) VH: QVQLQQWGAGLLKPSETLSLTCAVYGGSFSGYYWSWIRQPPGKGLEWIGEINHSGSTNYNPSLKSRVTISVDTSKNQFSLKLSSVTAADTAVYYCARLSRQWLVRPHIYYFDYWGQGTLVTVSS VL: DIQMTQSPSTLSASVGDRVTITCRASQSVSSYLNWYQQKPGKAPKLLIYAASSLQSGVPSRFSGSGSGTDFTLTISSLQPEDFATYFCQQSYSTPRTFGQGTKLEIK",Kd,SARS-CoV-2 S2 protein,0.0456 nM
same,koff,SARS-CoV-2 S2 protein,3.12e-07 s⁻¹
same,kon,SARS-CoV-2 S2 protein,6840 M⁻¹ s⁻¹
"AB-009631 (antibody, V domains shown) VH: EVQLVESGGGLVQPGGSLRLSCAASGFNFSFYWMSWVRQAPGKGLEWVANIKQDGSEKYYVDSVKGRFTISRDNAKNSLYLQMNSLRAEDTAVYYCARLSGGSWYFDYWGQGTLVTVSS VL: not shown",Kd,SARS-CoV-2 S2 protein,0.0273 nM
same,koff,SARS-CoV-2 S2 protein,3.31e-07 s⁻¹
same,kon,SARS-CoV-2 S2 protein,12100 M⁻¹ s⁻¹
"AB-009769 (antibody, V domains shown) VH: EVQLVESGGGLVQPGGSLRLSCAASGFTFSSYWMSWVRQAPGKGLEWVANIKQDGSEKYYVDSVKGRFTISRDNAKNSLYLQMNSLRAEDTAVYYCARSPEVLWFGDPVLDNWFDPWGQGTLVTVSS VL: SYELTQPPSVSVSPGQTARITCSGDALPKQYAYWYQQKPGQAPVLVIYKDSERPSGIPERFSGSSSGTTVTLTISGVQAEDEADYYCQSADSSGTYPVVFGGGTKLTVL",Neutralization (Infectious virus; (µg/mL)),[1],24.5 µg/mL
same,Pseudovirus Neturalization,[2],> 50 µg/mL
same,Pseudovirus Neturalization,[3],> 50 µg/mL
"AB-009281 (antibody, V domains shown) VH: EVQLVETGGGLIQPGGSLRLSCAASGFTVSSNYMSWVRQAPGKGLEWVSVIYSGGSTYYADSVKGRFTISRDNSKNTLYLQMNSLRAEDTAVYYCARDLYYYGMDVWGQGTTVTVSS VL: DIQLTQSPSFLSASVGDRVTITCRASQGISSYLAWYQQKPGKAPKLLIYAASTLQSGVPSRFSGSGSGTEFTLTISSLQPEDFATYYCQQLNSYPTFGQGTKVEIK",Neutralization (Infectious virus; (µg/mL)),[1],33.7 µg/mL
same,Pseudovirus Neturalization,[2],> 50 µg/mL
same,Pseudovirus Neturalization,[3],0.215 µg/mL
"AB-009613 (antibody, V domains shown) VH: EVQLVESGGGLIQPGGSLRLSCAASGFTVSSNYMSWVRQAPGKGLEWVSVIYSGGSTYYADSVKGRFTISRDNSKNTLYLQMNSLRAEDTAVYYCARDYGDFYFDYWGQGTLVTVSS VL: not shown",Kd,[4],4.26 nM
same,koff,[4],0.000313 s⁻¹
same,kon,[4],73400 M⁻¹ s⁻¹
same,Kd,[5],16.1 nM
same,koff,[5],0.00102 s⁻¹
same,kon,[5],63600 M⁻¹ s⁻¹
"AB-009271 (antibody, V domains shown) VH: EVQLVESGGGLIQPGGSLRLSCAASGFIVSSNYMSWVRQAPGKGLEWVSVIYSGGSTYYADSVKGRFTISRDNSKNTLYLQMNSLRAEDTAVYYCARDYGDFYFDYWGQGTLVTVSS VL: EIVMTQSPATLSVSPGERATLSCRASQSVSSNLAWYQQKPGQAPRLLIYGASTRATGIPARFSGSGSGTEFTLTISSLQSEDFAVYYCQQYYNWPRTFGQGTKVEIK",Kd,[4],15.1 nM
same,koff,[4],0.00141 s⁻¹
same,kon,[4],93200 M⁻¹ s⁻¹
same,Kd,[5],55.4 nM
same,koff,[5],0.0042 s⁻¹
same,kon,[5],75900 M⁻¹ s⁻¹
"AB-009734 (antibody, V domains shown) VH: QVHLVQSGAEVKTPGASVRVSCKASGYTFTSHYMHWVRQAPGQGLEWMGLINPSGSGTAYPQHFQGRVTMTRDTSTTTDYMDLSSLRSEDTAMYFCARMERSGAFDLWGQGTMVTVSS VL: EIVLTQSPGTLSLSPGERATLSCRASQTISSRYLAWYYQKPGQAPRLLIQGSSIRATGIPDRFSGSGSGTDFTLTISRLEPEDFAVYYCQHYGSSPPMYTFGQGTKLEIK",Neutralization (Infectious virus; (µg/mL)),[1],21.4 µg/mL
same,Pseudovirus Neturalization,[2],> 50 µg/mL
same,Pseudovirus Neturalization,[3],42.4 µg/mL
"AB-009661 (antibody, V domains shown) VH: QVQLVESGGGVVQPGRSLRLSCAASGFTFSSYGMHWVRQAPGKGLEWVAVISYDGSNKYYADSVKGRFTISRDNSKNTLYLQMNSLRAEDTAVYYCAKDYGDYGGMDVWGQGTTVTVSS VL: not shown",Neutralization (Infectious virus; (µg/mL)),[1],20.6 µg/mL
same,Pseudovirus Neturalization,[2],> 50 µg/mL
same,Pseudovirus Neturalization,[3],> 50 µg/mL
"AB-009615 (antibody, V domains shown) VH: QVQLVESGGGVVQPGRSLRLSCAASGFTFSSYGMHWVRQAPGKGLEWVAVIWYDGSNKYYADSVKGRFTISRDNSKNTLYLQMNSLRAEDTAVYYCAKVGSPYCSGGSCYSGYFDYWGQGTLVTVSS VL: not shown",Neutralization (Infectious virus; (µg/mL)),[1],12.3 µg/mL
same,Pseudovirus Neturalization,[2],> 50 µg/mL
same,Pseudovirus Neturalization,[3],27.7 µg/mL
"AB-009710 (antibody, V domains shown) VH: LVQLIQSGAEVVKPGSSVKVSCTASGGSYSSYTLSWVRQAPGQGVEWLGRISPVLNTTYYAQKLEGRVTMTADESTSTVYMQLSSLRSEDTAVYYCARLASMNGVDIWGQGTSVTVSS VL: EIVLTQSPGTLSLSPGERATLSCRASQSVYGSYLAWYQQKPGQAPRLLIYGGSSRATGIPDRFSGSGSGTDFTLTISRLEPEDFAVYYCHQYGTSRYSFGQGTKLDIK",Kd,SARS-CoV-2 S2 protein,46.8 nM
same,koff,SARS-CoV-2 S2 protein,0.000591 s⁻¹
same,kon,SARS-CoV-2 S2 protein,12600 M⁻¹ s⁻¹
"AB-009760 (antibody, V domains shown) VH: EVQLVQSGAEVKKPGESLKISCKGSGYSFTSYWIGWVRQMPGKGLEWMGIIYPGDSDTRYSPSFQGQVTISADKSISTAYLQWSSLKASDTAMYYCARSRSSDYFDYWGQGTLVTVSS VL: not shown",Neutralization (Infectious virus; (µg/mL)),[1],32.8 µg/mL
same,Pseudovirus Neturalization,[2],> 50 µg/mL
same,Pseudovirus Neturalization,[3],4.1 µg/mL
